Patent US20250090688A1 (BROAD INSTITUTE, published 2025)

Tests used:
Test in all cases: inhibition of transduction of human primary myotubes by virus pre-incubated with recombinant soluble integrin (affinity as inferred by the filing)
[1] = molecular target: T1, recombinant soluble human integrin heterodimer αVβ6 (human, UniProt P06756 31-992; P18564 22-707)
T1 construct: Bought (R&D Systems); also called αVβ6 recombinant protein; αVb6

[2] = molecular target: T2, recombinant soluble human integrin heterodimer αVβ1 (human, UniProt P06756 31-992; P05556 21-728)
T2 construct: Bought (R&D Systems); also called αVβ1 recombinant protein; αVb1

[3] = molecular target: T3, recombinant soluble human integrin heterodimer αVβ3 (human, UniProt P06756 31-992; P05106 27-718)
T3 construct: Bought (R&D Systems); also called αVβ3 recombinant protein; αVb3

[4] = molecular target: T4, recombinant soluble human integrin heterodimer αVβ8 (human, UniProt P06756 31-992; P26012 43-684)
T4 construct: Bought (R&D Systems); also called αVβ8 recombinant protein; αVb8

Measured: binding result

T4 sequence (P06756 31-992 limits assumed, chain 1 of 2): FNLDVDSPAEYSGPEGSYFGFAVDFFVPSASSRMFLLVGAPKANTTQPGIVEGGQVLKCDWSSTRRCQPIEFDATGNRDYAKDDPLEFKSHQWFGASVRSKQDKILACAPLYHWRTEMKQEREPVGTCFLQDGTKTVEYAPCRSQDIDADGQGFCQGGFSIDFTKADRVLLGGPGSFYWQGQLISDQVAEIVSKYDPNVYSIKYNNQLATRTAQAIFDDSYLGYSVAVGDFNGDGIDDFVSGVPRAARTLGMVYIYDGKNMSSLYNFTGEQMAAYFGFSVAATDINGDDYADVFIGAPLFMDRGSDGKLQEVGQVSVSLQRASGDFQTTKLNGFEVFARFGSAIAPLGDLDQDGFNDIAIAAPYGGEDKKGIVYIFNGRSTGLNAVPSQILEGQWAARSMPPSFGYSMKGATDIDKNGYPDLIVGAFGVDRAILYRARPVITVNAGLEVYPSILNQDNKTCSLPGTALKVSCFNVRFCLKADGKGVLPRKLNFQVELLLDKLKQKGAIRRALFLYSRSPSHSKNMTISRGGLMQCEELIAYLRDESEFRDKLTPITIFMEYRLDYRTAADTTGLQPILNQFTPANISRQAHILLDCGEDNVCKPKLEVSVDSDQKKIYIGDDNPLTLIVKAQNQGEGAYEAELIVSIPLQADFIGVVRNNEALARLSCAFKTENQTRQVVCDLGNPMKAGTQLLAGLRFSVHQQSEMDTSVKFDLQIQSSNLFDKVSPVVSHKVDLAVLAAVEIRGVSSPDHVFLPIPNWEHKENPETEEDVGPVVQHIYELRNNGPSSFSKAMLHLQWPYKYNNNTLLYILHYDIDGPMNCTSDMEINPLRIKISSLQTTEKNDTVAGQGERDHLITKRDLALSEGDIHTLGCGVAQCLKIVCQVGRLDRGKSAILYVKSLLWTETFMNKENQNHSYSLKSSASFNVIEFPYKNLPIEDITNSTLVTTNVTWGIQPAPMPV
T4 sequence (P26012 43-684 limits assumed, chain 2 of 2): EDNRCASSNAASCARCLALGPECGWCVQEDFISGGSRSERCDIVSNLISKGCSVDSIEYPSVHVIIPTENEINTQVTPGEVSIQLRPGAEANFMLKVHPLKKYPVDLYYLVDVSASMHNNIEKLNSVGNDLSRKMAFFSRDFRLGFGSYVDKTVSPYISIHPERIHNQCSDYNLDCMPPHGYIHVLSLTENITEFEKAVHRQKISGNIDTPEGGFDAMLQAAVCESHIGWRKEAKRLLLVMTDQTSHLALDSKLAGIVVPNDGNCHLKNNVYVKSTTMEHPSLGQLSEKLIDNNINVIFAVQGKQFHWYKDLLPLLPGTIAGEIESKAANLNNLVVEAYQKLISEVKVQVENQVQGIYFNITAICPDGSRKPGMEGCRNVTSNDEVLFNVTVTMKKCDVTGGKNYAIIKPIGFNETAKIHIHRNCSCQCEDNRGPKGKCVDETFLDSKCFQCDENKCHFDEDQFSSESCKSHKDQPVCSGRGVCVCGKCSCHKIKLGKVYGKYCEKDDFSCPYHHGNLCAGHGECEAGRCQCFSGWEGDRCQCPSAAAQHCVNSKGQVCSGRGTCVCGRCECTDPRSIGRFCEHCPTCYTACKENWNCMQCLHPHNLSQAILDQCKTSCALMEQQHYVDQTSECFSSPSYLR
T2 sequence (P06756 31-992 limits assumed, chain 1 of 2): as the sequence (P06756 31-992 limits assumed, chain 1 of 2) above
T2 sequence (P05556 21-728 limits assumed, chain 2 of 2): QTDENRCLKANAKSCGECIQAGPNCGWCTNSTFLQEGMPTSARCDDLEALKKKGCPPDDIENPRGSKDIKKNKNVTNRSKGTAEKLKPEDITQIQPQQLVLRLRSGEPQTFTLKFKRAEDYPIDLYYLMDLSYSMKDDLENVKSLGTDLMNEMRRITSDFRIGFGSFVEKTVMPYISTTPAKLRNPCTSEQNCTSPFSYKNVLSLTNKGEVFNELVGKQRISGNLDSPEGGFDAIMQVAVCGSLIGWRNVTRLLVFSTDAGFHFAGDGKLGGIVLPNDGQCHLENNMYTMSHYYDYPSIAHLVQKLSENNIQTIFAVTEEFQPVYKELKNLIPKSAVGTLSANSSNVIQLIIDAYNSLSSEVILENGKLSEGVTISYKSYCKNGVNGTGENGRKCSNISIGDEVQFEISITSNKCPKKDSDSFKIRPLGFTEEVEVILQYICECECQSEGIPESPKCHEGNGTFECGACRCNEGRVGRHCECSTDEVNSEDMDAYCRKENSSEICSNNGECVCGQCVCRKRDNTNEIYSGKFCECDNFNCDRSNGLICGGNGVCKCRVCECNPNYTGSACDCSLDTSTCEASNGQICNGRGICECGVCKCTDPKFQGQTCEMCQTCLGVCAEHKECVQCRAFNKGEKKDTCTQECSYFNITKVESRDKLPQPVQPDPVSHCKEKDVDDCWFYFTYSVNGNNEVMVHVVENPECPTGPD
T1 sequence (P06756 31-992 limits assumed, chain 1 of 2): as the sequence (P06756 31-992 limits assumed, chain 1 of 2) above
T1 sequence (P18564 22-707 limits assumed, chain 2 of 2): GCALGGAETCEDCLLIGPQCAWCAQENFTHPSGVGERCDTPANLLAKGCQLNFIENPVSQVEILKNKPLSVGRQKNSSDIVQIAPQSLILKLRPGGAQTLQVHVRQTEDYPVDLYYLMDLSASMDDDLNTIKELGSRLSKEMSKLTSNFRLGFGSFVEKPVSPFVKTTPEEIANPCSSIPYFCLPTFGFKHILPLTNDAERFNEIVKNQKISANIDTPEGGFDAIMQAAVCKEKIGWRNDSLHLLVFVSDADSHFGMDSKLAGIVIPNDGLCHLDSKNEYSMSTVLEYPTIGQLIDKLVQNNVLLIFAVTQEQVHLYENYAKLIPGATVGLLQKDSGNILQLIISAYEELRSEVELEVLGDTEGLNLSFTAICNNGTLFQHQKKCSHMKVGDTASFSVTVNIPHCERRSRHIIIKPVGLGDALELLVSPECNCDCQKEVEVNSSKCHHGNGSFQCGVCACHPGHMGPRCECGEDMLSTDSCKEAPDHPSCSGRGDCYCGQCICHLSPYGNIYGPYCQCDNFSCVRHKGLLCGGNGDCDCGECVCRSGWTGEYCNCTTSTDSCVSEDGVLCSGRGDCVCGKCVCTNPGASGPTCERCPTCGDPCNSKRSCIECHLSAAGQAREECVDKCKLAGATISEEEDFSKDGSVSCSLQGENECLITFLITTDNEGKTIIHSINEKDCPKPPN
T3 sequence (P06756 31-992 limits assumed, chain 1 of 2): as the sequence (P06756 31-992 limits assumed, chain 1 of 2) above
T3 sequence (P05106 27-718 limits assumed, chain 2 of 2): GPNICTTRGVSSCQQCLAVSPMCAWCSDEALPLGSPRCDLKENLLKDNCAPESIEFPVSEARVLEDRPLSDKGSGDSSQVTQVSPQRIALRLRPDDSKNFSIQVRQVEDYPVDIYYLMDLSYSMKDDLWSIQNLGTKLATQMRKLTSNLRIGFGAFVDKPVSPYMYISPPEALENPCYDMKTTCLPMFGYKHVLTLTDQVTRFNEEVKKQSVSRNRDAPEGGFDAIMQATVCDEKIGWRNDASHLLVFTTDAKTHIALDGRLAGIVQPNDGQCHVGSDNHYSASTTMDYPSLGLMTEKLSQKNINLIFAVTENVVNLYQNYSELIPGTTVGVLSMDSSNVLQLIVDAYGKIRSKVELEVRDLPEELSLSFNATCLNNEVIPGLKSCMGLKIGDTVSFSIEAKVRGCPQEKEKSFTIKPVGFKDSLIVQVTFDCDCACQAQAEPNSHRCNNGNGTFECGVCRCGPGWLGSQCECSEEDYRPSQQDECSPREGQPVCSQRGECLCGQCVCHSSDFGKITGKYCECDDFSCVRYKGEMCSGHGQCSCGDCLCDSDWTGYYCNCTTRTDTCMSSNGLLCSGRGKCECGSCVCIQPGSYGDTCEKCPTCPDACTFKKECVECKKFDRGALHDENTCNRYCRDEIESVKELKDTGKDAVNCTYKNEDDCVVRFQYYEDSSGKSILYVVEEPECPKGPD

B1: MyoAAV 2A (other)
chain: MAADGYLPDWLEDNLSEGIREWWALKPGAPQPKANQQHQDNARGLVLPGYKYLGPGNGLDKGEPVNAADAAALEHDKAYDQQLKAGDNPYLKYNHADAEFQERLKEDTSFGGNLGRAVFQAKKRLLEPLGLVEEAAKTAPGKKRPVEQSPQEPDSSAGIGKSGAQPAKKRLNFGQTGDTESVPDPQPIGEPPAAPSGVGSLTMASGGGAPVADNNEGADGVGSSSGNWHCDSQWLGDRVITTSTRTWALPTYNNHLYKQISNSTSGGSSNDNAYFGYSTPWGYFDFNRFHCHFSPRDWQRLINNNWGFRPKRLNFKLFNIQVKEVTDNNGVKTIANNLTSTVQVFTDSDYQLPYVLGSAHEGCLPPFPADVFMIPQYGYLTLNDGSQAVGRSSFYCLEYFPSQMLRTGNNFQFSYEFENVPFHSSYAHSQSLDRLMNPLIDQYLYYLSKTINGSGQNQQTLKFSVAGPSNMAVQGRNYIPGPSYRQQRVSTTVTQNNNSEFAWPGASSWALNGRNSLMNPGPAMASHKEGEDRFFPLSGSLIFGKQGTGRDNVDADKVMITNEEEIKTTNPVATESYGQVATNHQGPGRGDQTTLAQAQTGWVQNQGILPGMVWQDRDVYLQGPIWAKIPHTDGNFHPSPLMGGFGMKHPPPQILIKNTPVPADPPTAFNKDKLNSFITQYSTGQVSVEIEWELQKENSKRWNPEIQYTSNYYKSNNVEFAVNTEGVYSEPRPIGTRYLTRNL
notes: Recombinant AAV particle; also called EMyoAAV; enhanced MyoAAV
binds: all assays above
